In the supplement of paper PMC9170038:

Test system: MS2 coat protein
Assay: apparent KD of MS2 coat protein; higher = weaker reporter binding
Settings: Eterna round: R107
Procedure, shortened: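 Titration buffer: 100 mM Tris-HCl pH 7.5, 80 mM KCl, 4 mM MgCl2, without or with constant ligand. Designed RNA switches transcribed on-chip from Illumina sequencing clusters received SNAP-549-labelled MS2 coat protein in twofold steps from 0.7 or 1.5 nM to 3 µM. Apparent KD is the median per design of fits to normalised cluster binding curves.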

[1] = input ligand: theophylline 20 uM
[2] = input ligand: tryptophan 2.4 mM
[3] = input ligand: theophylline 2 mM

| Sequence | apparent KD of MS2 coat protein (input ligand: arginine 13.2 mM) | apparent KD of MS2 coat protein [1] | apparent KD of MS2 coat protein [2] | apparent KD of MS2 coat protein (input ligand: none) | apparent KD of MS2 coat protein [3] |
| --- | --- | --- | --- | --- | --- |
| GGAGGCCUUAGGGAUACCAGCUAAGUUGAGUACAUGAGGAUCACCCAUGUGUUCCCAGAGAGCCCUUGGCAGCCCUCAUCCGUUC [theeternabot_sameState_MS2_Theo_B_7] | 14.5 nM | 13.9 nM | 12.4 nM |  |  |
| UGGUGUAGGGUAAAUAGGAUUAGUACAGAAGGAGCGCGAAUAAACGCAGGUAGGUCGCUGGAAUAAACAUGAGGAUCACCCAUGU [Same State Arginine A GF 27] | 17.4 nM | 27.4 nM | 20.7 nM | 19.2 nM | 21.5 nM |
| UUUAUUUAUUUAUUUAUUUAUUUAACAGAAGGAGCGUGGAUUAACACAGGUAGGUCGCUGACAUGAGGAUCACCCAUGUAUUAUU [SSAA #1] | 106 nM | 48 nM | 35.8 nM | 28.4 nM | 41.6 nM |
| AAAAUCCUCCAUGAGGAUCACCCAUGGGAAGGAGCGCCCGAAAGGGCAGGUAGGUCGCCCAUGAGGAUCACCCAUGGAACCUAAA [ArgAX 26 #DoubleMS2 #OpenEnded #AlternativeMS2] | 43.7 nM | 112 nM | 43.5 nM | 56.5 nM | 118 nM |
| UGCCGAGACGUGGAUUACCCAUGUACAGAAGGAGCGCCCGAAAGGGCAGGUAGGUCGCUGAGGACAUGAGGAUCACCCAUGUCGA | 36.6 nM | 52 nM | 43.3 nM | 54.8 nM | 49.5 nM |
| AUUCAUGGAAACAUGACAUAGGGAUCACUCCGAGGACCGGUACGGCCGCCACUCGCGAGGAGGCACAUGAGGAUCACCCAUGUUA [SS Tryp A #4] | 27 nM | 73.8 nM |  |  | 92.1 nM |
| AUGCAUAUCAGAAGGAGCGUCUUUAACAUGAGGAUCACCCAUGUAACAUUGAAUUCGAUGAGACAGGUAGGUCGCUGAAUAGUAA [SS-ArgB24] | 27.5 nM | 39.3 nM | 31.2 nM | 33.7 nM | 32.8 nM |
| AGUGUUAUAACUGAUACCAGACCUUUGCUUAUACAUGAGGAUCACCCAUGUAAAAUGGCGGUCCCUUGGCAGCAGAGAAUACACA [#08 Same State - Theophylline B] | 30.2 nM | 32.9 nM | 36.3 nM |  |  |
| ACAUGAGGAUCACCCAUGUAUGACUAUCCUCGAGGACCGGUACGGCCGCCACUCGAAGGAGUGGCUCGCGAGUGCGCACUUGCAA [5' end] | 9.87 nM | 16.5 nM | 11.5 nM | 12.5 nM | 13.6 nM |
| GCACCAGGUACGGAUACCAGCUAUAGGCCCAAUGGGCGACAUGAGGAUCACCCAUGUAAUGGCCCUUGGCAGCUGUACCUGGUGC [SSThB NP+V+V2 #11 +-Same Structure] | 61.6 nM | 67.2 nM | 99.8 nM |  |  |
| GUAAUUAUAAGAAGGAGCGUCGAAAAUGGGUAAACAUGAGGAUCACCCAUGUAAAGGGAACGACAGGUAGGUCGCUUAUGGUUAC [AstromonsSSArgB#24] | 99.2 nM | 245 nM | 214 nM | 200 nM | 305 nM |
| CGCUGGCCACAUGAGGAUCACCCAUGUGAAGGAGCGGCGAAUAAGCCAGGUAGGUCGCGCAUGAAUAAAUCAUGUAGGUUGCGAA [XArg-A 11 V2] | 16.9 nM | 14.9 nM | 14.5 nM | 13.4 nM | 17.9 nM |
| AUACAUGAGGAUCACCCAUGUCAUACAGAAGGAGCGUCACAUAAGACAGGUAGGUCGCUGAUAUAUACGUCACGAAUAGUGACGA [JR_SSArginiA_Sub017] | 16.8 nM | 23.5 nM | 18.6 nM | 18.6 nM | 20.4 nM |
| GUACAUGAGGAUCACCCAUGUAUAGUUGAAGGAGCGACCGGUGGGUCAGGUAGGUCGCAGCACAUGGCGUCAACCCGUGUAUGCC [#1 Exclusion - Arginine A Attempt #26 (Inspired by Pi)] | 18.1 nM | 26.7 nM | 17.2 nM | 17.6 nM | 22.1 nM |
| GACGCAUGAGUUGUAACAGCUCAUGGGUCGCGAGGACCGGUACGGCCGCCACUCGGCUGUACAUGAGGAUCACCCAUGUCAGGGU [#1 Same State - Tryptophan A Attempt #29 (HarryS)] | 24.7 nM | 1320 nM | 451 nM | 346 nM | 1310 nM |
| UUAGUAACGACGGCCGCCACUGAAUUUGAACAUGAGGAUCACCCAUGUAGAGAUCCUAGAAUAAACAGGACCGGGUCUGAUAAUG [Exclusion Tryptophane B GF3] | 80.8 nM | 139 nM |  |  | 120 nM |
| GCUACAUGAGGAUCACCCAUGUGUACUGAAGGAGCGGCGGAAACGCCAGGUAGGUCGCAGUAUGUGGCUCUGGGCACGAGAUGGC [SSAA NP+V+V2 #1] | 20.1 nM | 39.4 nM | 33.7 nM | 33.6 nM | 35.9 nM |
| UUAAUCUUGGUUGAAAACAAUUAAGCAGAAGGAGCGUGAUAAAACACAGGUAGGUCGCUGAAGGGAACAUGAGGAUCACCCAUGU [AstrosSSArgA#14] | 25.4 nM | 41.1 nM | 25.6 nM | 26.6 nM | 31.6 nM |
| AGAUUCGACACGGCCGCCACUUGUGGUGGAUUAUCCAGUGUCGAACAUGAGGAUCACCCAUGUACAAGGACCGGGUGUUGAGUCU [XTryp B #19] | 53.3 nM | 79.3 nM |  |  | 96.3 nM |
| ACCUGUACGAAAAGUGCAGGACACGGAAUACGAGGACCGGUACGGCCGCCACUCGGAUAAAACCUGAGGAUCACCCUGGUCCGUG [TrypAS 14 #AlternativeMS2 #Zipper #StaticStem] | 27.7 nM | 43.5 nM | 22.6 nM | 24.6 nM | 34.6 nM |

| Sequence | apparent KD of MS2 coat protein (input ligand: arginine 13.2 mM) | apparent KD of MS2 coat protein [1] | apparent KD of MS2 coat protein [2] | apparent KD of MS2 coat protein (input ligand: none) | apparent KD of MS2 coat protein [3] |
| --- | --- | --- | --- | --- | --- |
| UGUAUGUGAUUUGAUACCAGUCCAACUGGUAAAACAUGAGGAUCACCCAUGUAAAAUUGGGACCCUUGGCAGCAAAUCGCAUACU [SSTheo B #21] | 144 nM | 346 nM | 534 nM |  |  |
| GGGUAUGAUCCGGAUACCAGCGAACAUGAGGAUCACCCAUGUGACCUAAGAUAGGCUCUACGCCCUUGGCAGCCGCGAUCGCGUU [Same State Theophylline B GF8] | 21.7 nM | 32 nM | 29 nM |  |  |
| UGUAUGGACUGAAGGAGCGCCUCAAAAUAGCAUGAGGAUCACCCAUGCAAGGCGAAAGCCGGGCAGGUAGGUCGCAGUCCAUACU [ArgBX 3] | 13.5 nM | 14 nM | 13 nM |  | 14.5 nM |
| GACCGGUUAUAGUGCGAUUGUCUUGUGGAAGGAGCGCAGAGGACUGCAGGUAGGUCGCCACAUGAGGAUCACCCAUGUCAGGAUA [Tirevete] | 33.8 nM | 33.4 nM | 22.3 nM | 23.7 nM | 43.9 nM |
| UGAUUGAACGGAAGGAGCGUGUAAGAACAAGAACAUGAGGAUCACCCAUGUAUUAAUUUAACACAGGUAGGUCGCCGAGAGAUUG [11.D] | 16 nM | 15.2 nM | 12 nM | 14.6 nM | 14 nM |
| UUGUUGUUUGGAAGGAGCGUGUAUGAUUUAGAACAUGAGGAUCACCCAUGUUGGAGGAUAGCACAGGUAGGUCGCCGGGUGGUGG [11.X] | 16.2 nM | 23.6 nM | 15 nM | 13.4 nM | 21.4 nM |
| UCGUGGUCCGCAAGGACCGGGAGUUGCGAUACCAGCACGGUAACGUGCCCUUGGCAGCGCACAUGAGGAUCACCCAUGUGGUGUU [#1 Exclusion - Theophylline A Attempt #14 (HarryS)] | 40.9 nM | 305 nM | 174 nM |  |  |
| GACAUGAGGAUCACCCAUGUACCGCGAGAAGGAGCGCGGAUAAACGCAGGUAGGUCGCUCGUGGGCUUUUAUUCAAUCGAAAGCU [Zaesar] | 26.8 nM | 106 nM | 48 nM | 50.5 nM | 165 nM |
| GGACUAACCAGAAGGAGCGGCACGCAGAAACUGCAAAUUCCUCCGCACGAGGAUCACCCGUGUCAGGUAGGUCGCUGGUUAGUCG [ArgBX 28] | 20.8 nM | 25.9 nM | 22.6 nM | 19.7 nM | 24 nM |
| UAUAUAGAAGGAAGUCAUAUAGUUGCAGAAGGAGCGUAGGAAACUACAGGUAGGUCGCUGAGGUACAUGAGGAUCACCCAUGUAG [SSArg A #16 Slice of Pi] | 31.1 nM | 41 nM | 27.2 nM | 23.6 nM | 29.7 nM |
| CUCCCGUGGUCGGCCGCCACUGGAGGCCUUGCGCGACAUGAGGAUCACCCAUGUUGGCCCGGCGUCAGGACCGGGAUCGCGUGAG [#1 Same State - Tryptophan B Attempt #10 (HarryS)] | 8.86 nM | 18.8 nM | 10.1 nM | 14.4 nM | 12.2 nM |
| CAAAAUAUCGGAAGGAGCGCGGGUAGGCGGGUUGGAUCACAUGAGGAUCACCCAUGUAAAUCGCAGGUAGGUCGCCGAUAACGCG [XArg-B27] | 52.9 nM | 60.4 nM | 30.1 nM | 19.9 nM | 37.9 nM |
| AGUGUUAUAACUGAUACCAGACUUGCGCUUAAACAUGAGGAUCACCCAUGUAAAAUGGUUGUCCCUUGGCAGCAGAAAAUACACA [JR_SSTheophyB_Sub006] | 53.2 nM | 98 nM | 98.4 nM |  |  |
| AGGACGGCCGGAAGGAGCGGUACAUGAGGAUCACCCAUGUACCUCUGGGCAUCCGUAGUGUGCCAGGUAGGUCGCCGGUUGCGGG [Veatgema] | 11.1 nM | 14.5 nM | 10.8 nM | 9.88 nM | 12.1 nM |
| GCUACAUGAGGAUCACCCAUGUGUACUGAAGGAGCGGCGAAAACGCCAGGUAGGUCGCAGUAUGUGGCUCUGGGCACGAGAUGGC [#02 Same State - Arginine A] | 27 nM | 40 nM | 30.5 nM | 37.3 nM | 41.3 nM |
| CCUAUGCAGUCGGCCGCCACUGAGUCCUCAAUAAUAAAUUAUUAUACAUGAGGAUCACCCAUGUACAGGACCGGGACUGUAUAGG [Ex Tryptophan B 14] | 89 nM | 244 nM | 214 nM | 122 nM | 237 nM |
| UAAAAUAAAAGGGUGAAGGUAUAAACAGAUACCAGCCAGAUAACUGGCCCUUGGCAGCUGAAUGACAUGAGGAUCACCCAUGUCU [TheoAS 21 #OpenEnded #Ms2Late] | 13.1 nM | 17.7 nM | 14.5 nM |  |  |
| UAUCGUCAGACGGCCGCCACUAGAACAUGAGGAUCACCCAUGUACGGCCGCCCGGUAUGGGUGUCUAGGACCGGGUCUGACGAAU [(Trp1)-(Ms2)-(T)'-(M)'-(Trp2)_Design21] | 22.9 nM | 37.8 nM |  |  | 39.8 nM |
| GCAUCCUAGUCGGCCGCCACUGCAACAUGAGGAUCACCCAUGUCAGGCCUCAUGUGUCCUGGUAGCAGGACCGGGACUAGGAUGC [(T1)-(M1)-(M2)-(T)''-(M)'-(T)'-(T2)_Design4_2/18/17] | 34 nM | 47.1 nM |  |  | 52 nM |
